A protein production outcome set (Wang et al. 2014)

assay: label from the status in PepcDB records
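Also: failed if final PepcDB status was selected cloned or expressed and not failed if soluble or beyond.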

Row | Sequence | protein production
1 | PGFIDMHAHSELRLFENPGAREKLTQGITTEVLGQDGVSVAPVPPNLTDEWAERVKSLDGTLGETWPWHTVSGYLEALESVEPAVNCAYYAPHGNIRSMLAGFEDRPLSGEHVVAAGPVTGQRLDRPKSDHDTAPGELDAIRQELEVALEEGAFGMSKGMIYPPSSYARDDELVALADTLAKRDSFMISHVWNETDRVVESIDRYLDICRRGGCHAHVSHLKVGGQQNWGDSEAVLDLFDDAVDRGQRVTFDQYPYTAGSTMLTALLPPWARQGDSEAIRHRLNSAAVRDRIAADISQPGDWENLAYAAGSWDNILITRTGSGRYQGDTIADIAAEMDREPVDAMCELLVAEELDVTMADFVMAETDIERFLADDRGTFCTDGIFGGKPHPRAIGAFSRILERYVRERNVLSPELLAYKAAGNPADILG | failed
2 | PGLRELCIQKAPGERLGISIRGGARGHAGNPRDPTDEGIFISKVSPTGAAGRDGRLRVGLRLLEVNQQSLLGLTHGEAVQLLRSVGDTLTVLVCDGFE | not failed
3 | PGLVDVHTHFMPERVLRKVWDYFDGLGPLTGGLEWPITYRSDEDQRLATIREFGVRAFTAMLYPHKAGMARWLNSWAVDFARRTPDCLHTATLFPEPGVEAYVLEAVEQGARVFKAHVQVGAYDPADELLDPVWGLLAEAGVPVVMHCGSGPAPGKHTGPGPVAQVLARHPRLRLVVAHLGMPEYEDFLDLAERYGEVRLDTTMAFTDFSERLAPFPRGARPRLAGLGDRILLGTDFPNIPYRYVDQLYALERLGLGDDWLRSVCHGNGARLFGL | failed
4 | PGYTLTRELPLTEYRALYRAAEDTWAARLDWSPEQYDAHFAREDVRLLALRDSEGRPVAFAELELCAPDSRAELTHLAVHPAQRGQGLGRALLALAAAEAAQSPEIRTLRARAHDHMSAARQLYARAGLSHCRAVVTSLREG | failed
5 | PHSMEPQVTLNVTFKNEIQSFLVSDPENTTWADIEAMVKVSFDLNTIQIKYLDEENEEVSINSQGEYEEALKMAVKQGNQLQMQVHEG | not failed
6 | PKRTAATAGALMIGVAVVSLFTVFGASLKATMDQTVSRSFAGDVAVSAPSFGAGGSGLSPRLAGAIQELPEVDTAVGLGRGVAEVDGQGRALTVTDPAALNRTFDLGAVHGSLDDLGTDGIAITENEADERGLTTGDTTRLTFTDGHSGTFTVRAVYGQSELAGDYVITRAAWAPHRTQDSDTLVAVAFEDGVGADAGKAAVEKVADRYGNPEVQTREEYAESSAGGIDMMLTLVYALLALAVLIALLGISNTLTLAVHERTRELGLLRAVGQTRAQLRAMVRWESVLVAAFGTVGGLGLGAFLGWVLVAASDGASDSAFAFAVPPAQLAVVALVGLAAGALAGVRPARRASRLDVLRAVAT | failed
7 | PLLIFPPWINKFYIMDLRPENSMIRWLTAQGFTVFVASWVNPDQTLAAKTFEDYMVEGIYDAAQQVMTQCGVDRVNTVGYCIGGTLLSVALAHMAARGDKRINSATFFAAQQDFAEAGDLLLFTNEEWLQSIEQQMDQAGGFLPSQSMADTFNALRGNDLIWSFFVSNYLMGKEPRPFDLLFWNADQTRMPKALHLFYLRNFYKDNALTTGKLSLGGERLDLSKVKIPIYVQSSKDDHIAPYRSVYRGARAFGGPVTFTMAGSGHI | failed
8 | PMNGKEKAASYDKVVDVDVKLGQVSVKNPKGTAHEMPKTFTFDAVYDWNAKQFELYDETFRPLVDSVLQGFNGTIFAYGQTGTGKTYTMEGIRGDPEKRGVIPNSFDHIFTHISRSQNQQYLVRASYLEIYQEEIRDLLSKDQTKRLELKERPDTGVYVKDLSSFVTKSVKEIEHVMNVGNQNRSVGATNMNEHSSRSHAIFVITIECSEVGLDGENHIRVGKLNLVDLAGSERQAKTGAQGERLKEATKINLSLSALGNVISALVDGKSTHIPYRDSKLTRLLQDSLGGNAKTVMVANVGPASYNVEETLTTLRYANRAKNIKNKPRVNEDPKDAL | failed
9 | PNVVKMNKPFISLCPEITRAHALTLMDWLEDEHVTRHLSDSRHVSRFIEQVIDRVQLPVLTHLFNQGGRFFMAYDRHDVPVGFVRLVKTGSDCEIVLVIGNRDNWGRKLGASAIREGMKLAFFEMRAARLIAKVHPDNERSLNAFLRCGFVLE | not failed
10 | PPHYDYAIGIRGDSMLPKYEQGDMLYIVDKGMSTYSGQLCIVVHNGNTYFKKVYTEHDGLRLVSLNKKYSDIFIGYPPAEDTYIKIYDVVGSFTPIEF | failed
11 | PPSTLIGPGDDAALVRADDGRVAVSADMLVQDRHFRLDWSSPRDVGRKAVAQNAADVAAMGARPTAFLVSLGLPPDTSIDVADGISAAIGESAEELGAGVVGGDLVQAGQVVISVTVLGDLGGRS | failed
12 | PQAMIIDVVADVVCPWCYLGWRRLKSAIALRPDLKAQLIWRPYQLDPTLPEDGVDRKAYMAQKFKDPEKLKAVHTALVEGGAEEGIVFNFEAIALSPNTNAAHRLIRWALTAGVQDHVVEALFKAYFEQGLDIGDPIVLGDIAEAAGMERLVVLQLLSEGADKEAVAREHAMAVQGGVTGVPFAIFAGKVAVVGAESPERIAQAIDQALAA | failed
13 | PREPVVNDEMCDVCEVWTAESLFPCRVCTRVFHDGCLRRMGYIQGDSAAEVTEMAHTETGWSCHYCDNINLLLTEE | not failed
14 | PRKASRKPPREESSATCVLEQPGALGAQILLVQRPNSGLLAGLWEFPSVTWEPSEQLQRKALLQELQRWAGPLPATHLRHLGEVVHTFSHIKLTYQVYGLALEGQTPVTTVPPGARWLTQEEFHTAAVSTAMKKVFRVYQGQ | not failed
15 | PRMIVFGAIDFASALARAGKFLGHHVTVCDARPVFATPARFPDADEVVVEWPHEYLARTAVDARTVLCVLTHDAKFDIPLLRLALRLPVAYVGAMGSRRTHLDRAARLREAGV | failed
16 | PSLPGIEAAARYLPATQGMEIGGDFYDLVATVGRAAAVIGDVQGHNVTAAGLMGQIRTAVRAYTTVGQAPGQVMRSTNRLMIDLGTDLFASCVYLRLDPARQRVVMARAGHPPPLLRKPDGQVRVLDLAGGPLLGIDADATYTTTEFALAPGSVLALYTDGLIESPGIDIEDALAELGERLAESGDEPLDELADRLVRHTATAEERLDDIALLLLRARA | failed
17 | PSMPASPVLTKAGITWLSLQWSKPSGTPSDEGISYILEMEEETSGYGFKPKYDGEDLAYTVKNLRRSTKYKFKVIAYNSEGKSNPSEVVEFTTCPD | not failed

Row | Sequence | protein production
18 | PTRQVLQGSRCRLEPLTLAHASDLFAAHQLAPDARSWTWLLREPESNLAEFSAWVEQVATLADPIHFAVVDQQRGKAVGSLALMRIDIAHGVVEVGHVHFSPLLSRTAMATEAHWLLMQYVFDTLGYRRYEWKCNSLNIPSARAARRLGFQYEGRFRQALVSKGHNRDTDWFSVIDGEWPELD | failed
19 | PTSSTTAALVMGDALAVALLEARGFTAEDFALSHPGGALGRKLLLRVNDIMHTGDEIPHVGLQATLRDALLEITRKNLGMTAICDDDMNIIGIFTDGDLRRVFDTGVDMRDASIADVMTRGGIRIRPGTLAVDALNLMQSRHITCVLVADGDHLLGVVHMHDLLRA | not failed
20 | PTSSTTATLVMGDALAVALLKARGFTAEDFALSHPGGALGRKLLLRVSDIMHTGDEIPHVNKHATLRDALLEITRKNLGMTVICDESMKIDGIFTDGDLRRVFDMGGDMRQLGIAEVMTPGGIRVRPGILAVDALNLMQSRHITSVLVADGDQLLGVLHMHDLLRA | failed
21 | PVLTQTSEQAPSSAPRDVQARMLSSTTILVQWKEPEEPNGQIQGYRVYYTMDPTQHVNNWMKHNVADSQITTIGNLVPQKTYSVKVLAFTSIGDGPLSSDIQVITQTG | not failed
22 | PVTQVMTPRPVVFRVDATMTINEFLDKHKDTPFSRPLVYSEQKDNIIGFVHRLELFKMQQSGSGQKQLGAVMRPIQVVLNNTALPKVFDQMMTHRLQLALVVDEYGTVLGLVTLEDIFEHLVGE | not failed
23 | PVVVAVGAHREAAAVVDTAARLARDTASPLEVVHVRRTAVVEEQAADTETDEQAKAAVTAHLDRLGGMGVTATGQILTGVGDHAAAGRALARHAAEVGARTVAVGRSPRGPLAQFADGSFTSALTHAATCTVVLVDPNAEPR | failed
24 | QAELMTLTIVKGAQGFGFTIADSPTGQRVKQILDIQGCPGLCEGDLIVEINQQNVQNLSHTEVVDILKDCPIGSETSLIIHRG | not failed
25 | QDWLTFQKKHITNTRDVDCDNIMSTNLFHCKDKNTFIYSRPEPVKAICKGIIASKNVLTTSEFYLSDCNVTSRPCKYKLKKSTNKFCVTCENQAPVHFVGVGSC | not failed
26 | QGHLVHMTVVSGSNVTLNISESLPENYKQLTWFYTFDQKIVEWDSRKSKYFESKFKGRVRLDPQSGALYISKVQKEDNSTYIMRVLKKTGNEQEWKIKLQVLDPVPKPVIKIEK | not failed
27 | QHDSSRKLGLLQEMIGGGWWRYWAEQELFELAPALHDSLGLTGEYRRVPLEHLQGLLQPADADELGLRLRASLRSGQALAQDLCLRQPDSRGERRWLRIEGRPLGRGSALGLSGVLLDISEGRRQEER | failed
28 | QHTEERELKKRLMNTARTVSEMTEVKEALARKKQTEAVRHAVEEIRMINEADYIVVMDMNHIRYTHPVSTSIGKKSEGADEEAAFAEHIYFSEAKGEIGTAVRAFYPVKDQDLNQIGVVLVGKTLPGIADILLHLKRD | not failed
29 | QKDANASSEFYINKLGQTQELEDQQTYKLLAARVLIRENKVEQSAALLRELGELNDAQKLDRALIEARISAAKNANEVAQNQLRALDLNKLSPSQKSRYYETLAIVAENRKDMIEAVKARIEMDKNLTDVQRHQDNIDKTWALLRSANTGVINNASDEGNAALGGWLTLIKAYNDYIRQPVQLSQALQSWKNAYPNHAAATLFPKELLTLLNFQQTNVSQIGLLLPLSGDGQILGTTIQSGFNDAKGNSTIPVQVFDTSMNSVQDIIAQAKQAGIKTLVGPLLKQNLDVILADPAQIQGMDVLALNATPNSRAIPQLCYYGLSPEDEAESAANKMWNDGVRNPLVAMPQNDLGQRVGNAFNVRWQQLAGTDANIRYYNLPADVTYFVQENNSNTTALYAVASPTELAEMKGYLTNIVPNLAIYASSRASASATNTNTDFIAQMNGVQFSDIPFFKDTNSPQYQKLAKSTGGEYQLMRLYAMGADAWLLINQFNELRQVPGYRLSGLTGILSADTNCNVERDMTWYQYQDGAIVPVAN | failed
30 | QKNPDSYNGAVRENYTWSQDYTDLEVRVPVPKHVVKGKQVSVALSSSSIRVAMLEENGERVLMEGKLTHKINTESSLWSLEPGKCVLVNLSKVGEYWWNAILEGEEPIDID | not failed
31 | QLPSYRFNPNNHQSEQTLCVVCMCDFESRQLLRVLPCNHEFHAKCVDKWLKANRTCPICRAD | not failed
32 | QLRDFSSIIQTCSGNIQRISQATAQIKNLMSQLGTKQDSSKLQENLQQLQHSTNQLAKETNELLKELGSLPLPLSTSEQRQQRLQKERLMNDFSAALNNFQAVQRRVSEKEKESIAR | not failed
33 | QLREIVEKVSRVDDVHLALDILVKETCAALRTECCTIYLANEEMQRLELMATQGLIFEGDSIHINFNEGLVGLVKRSAEPLNLAEASKHPEFKFFPQLGEQVYHSFLATPIIHRKQVLGVLVIQQKTPRLFSEMEESFLVTLSAQLAVIIAHAQSLGHWQ | failed
34 | QLSMLNPQKPMRRSEQHIARQVFSGLTRLDEEEQLQPDLAHAWQALSDTHWRFYLRPGVRFHNGNLLTTELIVQNLWQLRLLNLFAHIDRVDSPYPWAVDVHLQKPDTRLPLLLAEACAKILPAESDRNPDFDLMPVGTGPYKVVLND | failed
